Results on 9 substances are retold here after patent US20210338838A1.

In experiment [1] the target is C3b (complement component 3b) (UniProt P01024). The experiment in a line: cell-based or functional assay.
The target is the same in experiment [2]. The experiment in a line: rank of binding affinity among six proteins, plate-based binding assays.
For experiment [3] the target is unchanged. The experiment in a line: plate-based binding assay, His-tagged recombinant protein from HEK293 cells.
Experiment [4] has the same target. The experiment in a line: relative C3b-binding assay, detection antibody AbCam OX-24 (#Ab112197).
For experiment [5] the target is unchanged. The experiment in a line: relative C3b-binding assay, percent of CFH-Risk, detection antibody AbCam OX-24 (#Ab112197).

protective CFH-I62-Y402-E936 (full-length complement factor H), sequence (P08603 19-1231 V62I): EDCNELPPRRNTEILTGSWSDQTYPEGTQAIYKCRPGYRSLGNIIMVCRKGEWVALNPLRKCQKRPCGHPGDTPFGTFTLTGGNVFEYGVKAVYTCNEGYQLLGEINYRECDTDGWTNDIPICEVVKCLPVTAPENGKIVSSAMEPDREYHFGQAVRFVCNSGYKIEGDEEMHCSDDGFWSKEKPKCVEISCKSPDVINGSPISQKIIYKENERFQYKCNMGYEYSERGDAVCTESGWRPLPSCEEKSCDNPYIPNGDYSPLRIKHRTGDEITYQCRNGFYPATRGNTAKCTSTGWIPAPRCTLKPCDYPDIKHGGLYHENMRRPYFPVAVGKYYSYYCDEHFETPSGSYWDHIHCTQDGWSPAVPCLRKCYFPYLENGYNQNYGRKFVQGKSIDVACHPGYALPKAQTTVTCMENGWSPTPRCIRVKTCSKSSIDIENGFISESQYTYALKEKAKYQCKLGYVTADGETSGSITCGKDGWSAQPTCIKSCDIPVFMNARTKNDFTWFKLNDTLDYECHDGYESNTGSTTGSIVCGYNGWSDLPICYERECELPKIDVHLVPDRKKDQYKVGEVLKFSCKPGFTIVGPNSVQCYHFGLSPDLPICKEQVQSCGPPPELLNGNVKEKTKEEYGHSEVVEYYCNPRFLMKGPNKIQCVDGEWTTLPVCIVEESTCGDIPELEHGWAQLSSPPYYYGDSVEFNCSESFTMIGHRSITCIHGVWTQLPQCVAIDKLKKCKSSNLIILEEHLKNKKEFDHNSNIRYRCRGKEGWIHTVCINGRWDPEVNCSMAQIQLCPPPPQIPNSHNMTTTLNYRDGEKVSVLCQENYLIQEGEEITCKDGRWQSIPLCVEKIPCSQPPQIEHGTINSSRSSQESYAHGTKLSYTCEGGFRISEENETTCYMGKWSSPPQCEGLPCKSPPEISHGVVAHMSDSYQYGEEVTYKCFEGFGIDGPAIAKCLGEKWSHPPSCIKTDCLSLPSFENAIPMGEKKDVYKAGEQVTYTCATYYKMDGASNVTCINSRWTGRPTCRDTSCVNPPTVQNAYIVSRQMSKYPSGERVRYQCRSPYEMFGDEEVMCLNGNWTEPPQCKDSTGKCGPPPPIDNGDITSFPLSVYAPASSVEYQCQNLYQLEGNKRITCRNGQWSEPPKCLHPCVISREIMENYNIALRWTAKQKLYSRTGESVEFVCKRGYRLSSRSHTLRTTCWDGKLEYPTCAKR
protective CFHT-I62-Y402 (truncated complement factor H ending in SFTL), sequence (P08603 other isoform, or with tags, fused parts or gaps): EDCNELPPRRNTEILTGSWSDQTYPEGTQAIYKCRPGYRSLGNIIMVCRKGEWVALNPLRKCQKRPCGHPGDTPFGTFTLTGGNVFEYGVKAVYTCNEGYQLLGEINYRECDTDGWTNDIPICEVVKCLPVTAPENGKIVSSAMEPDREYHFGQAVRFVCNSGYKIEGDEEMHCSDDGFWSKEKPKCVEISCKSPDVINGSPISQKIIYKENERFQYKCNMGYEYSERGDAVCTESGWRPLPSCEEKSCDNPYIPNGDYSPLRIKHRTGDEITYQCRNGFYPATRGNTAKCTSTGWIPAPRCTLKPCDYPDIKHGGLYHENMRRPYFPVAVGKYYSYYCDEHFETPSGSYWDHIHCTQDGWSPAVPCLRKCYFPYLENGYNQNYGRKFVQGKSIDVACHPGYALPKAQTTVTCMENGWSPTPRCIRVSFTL
CFHT-Neu/Del (truncated CFH of the neutral and deletion haplotypes, V62-Y402), sequence (P08603 other isoform, or with tags, fused parts or gaps): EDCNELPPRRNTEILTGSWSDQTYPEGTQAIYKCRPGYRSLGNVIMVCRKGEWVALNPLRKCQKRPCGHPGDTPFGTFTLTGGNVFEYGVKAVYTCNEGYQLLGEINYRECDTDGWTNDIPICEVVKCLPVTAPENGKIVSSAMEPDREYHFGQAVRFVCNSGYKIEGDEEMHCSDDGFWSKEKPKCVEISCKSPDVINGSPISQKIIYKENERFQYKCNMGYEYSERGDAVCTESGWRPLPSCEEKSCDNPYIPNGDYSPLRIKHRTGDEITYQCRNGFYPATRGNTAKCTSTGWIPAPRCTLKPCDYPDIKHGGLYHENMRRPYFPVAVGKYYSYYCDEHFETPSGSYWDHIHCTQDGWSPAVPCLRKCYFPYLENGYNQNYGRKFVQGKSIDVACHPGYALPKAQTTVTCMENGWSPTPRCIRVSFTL
CFH-Del (CFH of the CFHR3/1 deletion haplotype, V62-Y402-E936), sequence (P08603 19-1231, stated change not applied): as the sequence (P08603 19-1231 V62I) above, with I44V counted along it

As for “eCFHT-SK (engineered truncated CFH, I62-Y402, ending in SKSFTL) (from UniProt P08603 19-445)”, in experiment [1], the Cofactor (IC50 value for iC3b 43-kDa band appearance) amounted to 37 nM. This substance also yielded a Binding Affinity Rank (1 best to 6 worst) in experiment [2] of 3 rank. Also, the Kd in experiment [3] stood at 478 nM.

In experiment [1], “eCFHT-SE (engineered truncated CFH, I62-Y402, ending in SESFTL) (from UniProt P08603 19-445)” had a Cofactor (IC50 value for iC3b 43-kDa band appearance) of 89.7 nM. Besides, in experiment [2], the Binding Affinity Rank (1 best to 6 worst) came out at 6 rank. In addition, the Kd in experiment [3] was 938 nM.

“protective CFHT-I62-Y402 (truncated complement factor H ending in SFTL) (from UniProt P08603 19-445)” showed a Binding Potential in experiment [4] of 4. The substance further came in with a Cofactor (IC50 value for iC3b 43-kDa band appearance) in experiment [1] of 31.2 nM. Moreover, the Binding Affinity Rank (1 best to 6 worst) in experiment [2] amounted to 4 rank. For the same substance, the % FH-Risk in experiment [5] was found to be 17%. Besides, in experiment [3], the Kd stood at 717 nM.

In experiment [4], “CFH-Del (CFH of the CFHR3/1 deletion haplotype, V62-Y402-E936) (from UniProt P08603 19-1231)” had a Binding Potential of 24. Also, in experiment [5], the % FH-Risk amounted to 107%.

Take “CFHT-V62-H402 (risk variant of truncated CFH) (from UniProt P08603 19-445)”: in experiment [4], the Binding Potential worked out at 2. The substance further registered a Binding Affinity Rank (1 best to 6 worst) in experiment [2] of 5 rank. In addition, the % FH-Risk in experiment [5] stood at 10%.

Substance “CFH-Neu (neutral variant of full-length CFH, V62-Y402-D936) (from UniProt P08603 19-1231)” had a Binding Potential in experiment [4] of 29. Further, the % FH-Risk in experiment [5] was 134%.

For the substance “CFHT-Neu/Del (truncated CFH of the neutral and deletion haplotypes, V62-Y402) (from UniProt P08603 19-445)”, the Binding Potential in experiment [4] was 3. The same substance had a % FH-Risk in experiment [5] of 15%.

Substance “CFH-V62-H402-E936 (risk variant of full-length CFH) (from UniProt P08603 19-1231)” displayed a Binding Potential in experiment [4] of 22. The Binding Affinity Rank (1 best to 6 worst) in experiment [2] amounted to 2 rank. This substance had a % FH-Risk in experiment [5] of 100%.

In experiment [4], “protective CFH-I62-Y402-E936 (full-length complement factor H) (from UniProt P08603 19-1231)” yielded a Binding Potential of 29. The Cofactor (IC50 value for iC3b 43-kDa band appearance) in experiment [1] was 9.2 nM. This substance also gave a Binding Affinity Rank (1 best to 6 worst) in experiment [2] of 1 rank. Also, in experiment [5], the % FH-Risk came to 133%. For the same substance, the Kd in experiment [3] is 141 nM.
